Source: the supplement of paper PMC12042874
± gives the uncertainty stated by the source.

Experiment: amyloid nucleation score (Sup35N fusion, yeast selection) (log enrichment); library NNK3; higher = more nucleation; inactive = no reads after selection
In short: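 The nucleation score equals the log enrichment of output over input reads from DiMSum, centred on the mode score of non-aggregating sequences. It was computed only for sequences with 100 or more input reads. The reads came from Illumina sequencing of plasmid inserts from psi-negative yeast expressing Sup35N fused to peptides of 20 random codons, induced with 100 μM copper sulfate for 24 hours and grown 7 days at 30°C without adenine and uracil.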

| Substance | amyloid nucleation score |
| --- | --- |
| YVGFLSSCFF | 1.19 ± 0.14 |
| MSMDHLMTYLRLATQVALRS | inactive |
| WMYKTWHRI | inactive |
| IVISEALVFASGYKQVFNSV | inactive |
| VLNFWGAVFPIIMLFYESVY | 2.03 ± 0.096 |
| NVRWLFLAVSCQL | inactive |
| DAKKVCFGIKEDCWR | inactive |
| YDCKLSRAVLRGV | inactive |
| MEMLVVIRIARRMYDGGCLS | -0.423 ± 0.45 |
| RCSLLRNIG | inactive |
| VTLDEFRIISHCSYSFCYEG | inactive |
| MSMPWNNHMISNVYRSYFVA | inactive |
| VDVLER | inactive |
| FVRIYNFILLAV | inactive |
| NHDIDALTQTQPTDNSYL | inactive |
| RYNGSTTGSRLYMLLSMSLN | inactive |
| VNIYGCSYVLHPGCCNGESR | 2.84 ± 0.073 |
| LTSPFDPISLPKS | inactive |
| TKSRIWG | inactive |
| SGLDRWDAEVVSILWVKLTV | 1.44 ± 0.094 |

| Substance | amyloid nucleation score |
| --- | --- |
| LNFVVYMIGGFCCHHFNVLF | 1.3 ± 0.1 |
| ISLGRCNNDHWRILVGTWSA | inactive |
| IGSPSHLYKYHCVGFRVSSQ | inactive |
| NFLSALIYILMAYDRDFVYR | inactive |
| TATLAC | inactive |
| AENLVWRVMAYSARSTADYG | inactive |
| MLLVLR | 0.972 ± 0.1 |
| AVWYRNI | 2.06 ± 0.057 |
| VCLLIRPID | inactive |
| DIFGSGYGYRGLSGRNYINM | inactive |
| HLVCYLWE | 1.71 ± 0.093 |
| WVLLRWAGY | -0.611 ± 2.4 |
| IYRSIRQAVLCLGLSGS | inactive |
| GFKFKYSYRIDLWEGHWVVR | inactive |
| GVEIRYLQQ | inactive |
| DICHWVEYFV | inactive |
| TCSYKSC | inactive |
| LFIRP | inactive |
| RLSMNLNTVHVKHKECVPYR | inactive |
| LINAGTKFMQDTRSCWMHSS | inactive |

| Substance | amyloid nucleation score |
| --- | --- |
| LNLAKQCMLPSFPSYMVWYF | inactive |
| MHPKSNGTFMFKMAN | inactive |
| FFPFPKFWAGIVIAFY | inactive |
| EGIGDVCCKTPEYRSFGWMR | -1.13 ± 2.4 |
| FICERMRRIVESNVDLLGFY | -0.359 ± 0.32 |
| YTWYCFCRC | 2.44 ± 0.055 |
| LCLRRGGFVRIGVWVFVFYG | inactive |
| CFTLFVSQYVNDLDDYKRNW | 1.34 ± 0.092 |
| FGVQVWLMLFLGNVYIWMVM | inactive |
| QKAYKYSDI | inactive |
| FNSYGKLWYFESKDRVYACD | -0.462 ± 1.4 |
| RSRGWDWFEVSIIVRCSMWD | inactive |
| DQVAYRGKSVYSYKCKTRWG | inactive |
| PSRNYIVELS | inactive |
| LNKCLAGFIHMEVWILRMKL | inactive |
| FSVGFYFIYMTLKCGSCVQW | -0.362 ± 1.1 |
| NKLFEDSQAETS | inactive |
| FLFWILDALLLQVFQLSPHK | inactive |
| LINFEY | 1.16 ± 0.073 |
| IRTARNTEETMVVACMTVGV | inactive |
